Experimental data taken from the supplement of paper PMC10567573.

B1: PTPRD (parent)
chain: ELDELLKEISRKRRSIRYGREVEL

Variants of: B1
Assay: protein stability index of a GFP-peptide fusion (GPS, HEK-293T) (PSI 1-6); higher = more stable
Conditions: c terminus: a fixed tail appended
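Further: lentivirally expressed fusions sorted by FACS into six bins by GFP to DsRed ratio, PSI derived from sequencing read proportions per bin multiplied by bin number.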

Protein stability index: each site, then its substitutions
K12: M 2.11 | T 2.56 | E 2.32 | G 2.26 | Y 1.55 | L 1.95 | F 1.29 | P 2.53 | S 2.63 | H 2.03 | R 2.49 | C 2.49 | W 1.66 | I 1.66 | Q 1.81 | D 2.39 | A 1.99 | V 2.23
L6: P 4.08 | A 3.65 | I 1.93 | N 3.81 | S 3.98 | G 4.21 | R 3.76 | T 3.92 | V 3.8 | Q 3.73 | Y 2.71 | D 4.29 | C 3.29 | F 2.07 | K 3.92 | H 3.19 | W 1.5 | M 2.68 | E 4.28
S10: Q 2.2 | P 3.01 | A 2.44 | C 3.15 | K 2.17 | I 2.09 | G 2.44 | M 2.24 | D 2.87 | H 2.68 | T 2.49 | W 1.48 | N 2.77 | V 2.48 | L 1.41 | E 2.84 | Y 2.06 | R 2.48 | F 1.78
I16: C 2.81 | Y 1.75 | G 3.21 | S 3.4 | Q 3.12 | H 2.37 | A 1.9 | W 1.8 | T 2.57 | R 1.72 | M 2.54 | P 2.43 | F 1.81 | E 3.62 | K 1.9 | N 2.98 | L 2.42 | V 2.35
R13: F 2.06 | L 1.46 | C 1.8 | N 3 | M 2.21 | S 3.25 | Y 1.43 | E 3.07 | I 2.23 | T 2.28 | V 1.55 | Q 2.36 | G 2.96 | P 3.3 | D 4.49 | K 2.54 | H 2.14 | A 2.38 | W 1.72
E1: A 2.54 | F 1.83 | S 4.1 | D 2.3 | M 2.73 | H 2.47 | Q 2.41 | I 1.77 | R 2.17 | T 3.25 | C 2.07 | V 1.93 | L 1.98 | W 2.69 | K 2.26 | G 2.52 | P 3.07 | N 2.56
E8: S 2.45 | P 2.77 | G 2.86 | W 2.64 | H 1.99 | T 2.79 | D 2.92 | I 2.83 | K 3.79 | V 1.7 | F 2 | Q 2.81 | L 2.03 | R 2.54 | M 2.37 | N 2.44 | A 1.68 | Y 1.88 | C 1.83
Y18: F 2.33 | R 2.33 | Q 2.43 | G 2.51 | I 2.35 | E 2.96 | H 2.33 | S 2.91 | K 2.46 | L 2.59 | D 2.6 | T 2.17 | A 2.13 | N 2.74 | C 1.67 | P 2.78 | M 2.22
L2: R 3.71 | H 4.32 | F 2.49 | P 3.47 | C 3.06 | G 3.58 | K 4.09 | M 2.92 | N 4.2 | D 4.14 | Y 3.54 | V 2.43 | T 3.38 | A 3.79 | I 2.6 | Q 4.26 | S 2.99 | E 4.41 | W 2.99
R14: T 2.38 | H 2.92 | W 1.73 | A 2.02 | S 2.9 | P 2.64 | D 2.65 | N 2.1 | F 1.96 | M 2.03 | Q 2.55 | G 3.16 | V 2.42 | E 2.73 | K 2.39 | Y 1.66 | L 3.77 | C 2.19 | I 1.99
I9: V 2.61 | M 2.64 | T 3.97 | Y 2.63 | D 3.98 | L 2.21 | E 4.46 | P 3.81 | H 3.09 | W 2.89 | F 2.33 | Q 4.18 | A 3.14 | C 2.54 | G 3.57 | R 3.72 | S 3.62 | K 3.96 | N 3.35
S15: F 2.27 | E 2.65 | A 2.45 | D 1.91 | G 2.44 | V 2.29 | W 1.59 | R 2.22 | H 2.89 | I 2.29 | L 2.04 | N 2.65 | M 2.54 | Q 3.4 | K 1.88 | Y 2.65 | P 2.6 | T 2.99
D3: G 1.67 | L 1.63 | H 2.48 | A 1.76 | K 2.38 | S 2.57 | I 3.46 | W 1.75 | T 1.8 | Y 2.12 | Q 2.62 | E 2.51 | P 2.26 | N 3.35 | M 1.65 | F 2.12 | R 1.86 | C 1.73
E4: Y 1.27 | D 2.07 | T 1.88 | Q 1.99 | S 1.85 | P 2.48 | L 2.19 | V 1.94 | H 2.6 | A 3.26 | W 2.29 | M 1.9 | C 1.57 | K 2.59 | R 2.16 | F 2.39 | G 3.34 | I 1.73
L5: K 3.61 | F 2.69 | D 3.73 | N 2.69 | E 4.15 | A 3.07 | C 3.12 | I 2.45 | G 3.96 | Q 4.14 | R 3.18 | Y 3.44 | M 3.25 | T 3.58 | V 2.86 | P 3.82 | W 2.35 | H 4.08 | S 3.6
R11: M 2.15 | C 2.94 | G 2.01 | A 2.01 | K 1.84 | V 3.18 | W 2.3 | Q 2.55 | I 2.45 | E 3.19 | Y 2.62 | L 3.04 | H 2.45 | N 2.34 | T 3.21 | D 4.06 | S 2.49 | F 2.76 | P 3.04
R17: M 2.12 | C 2.34 | V 2.27 | P 2.97 | F 1.63 | I 2.46 | W 1.85 | Y 2.6 | Q 2.68 | A 2.39 | T 2.15 | D 3.33 | S 2.44 | L 2.55 | K 2.17 | G 2.19 | N 2.75 | E 2.64 | H 2.06
K7: C 2.33 | R 2.27 | Q 2.46 | T 3.09 | G 2.54 | H 2.4 | M 2.26 | W 2.19 | N 2.16 | F 2 | D 3.25 | L 2.72 | E 3.1 | I 2.27 | A 2.83 | S 2.6 | V 2.07 | Y 2.77 | P 3.12
